Here are results for 3 substances from US20080032929A1.

The target of experiment [1] is rabbit α-tropomyosin purified from ventricular muscle (rabbit) (UniProt P58772). Briefly: ELISA solid phase protein binding: cTnT coated, serial dilutions of rabbit α-tropomyosin, detected with mAb CH1; concentration of tropomyosin for 50% maximum binding. A general note: In an ELISA, binding on a coated surface is turned into a signal by an enzyme label.
Experiment [2] has as its target bovine cardiac troponin I purified from ventricular muscle (bovine) (UniProt P08057). Briefly: ELISA solid phase protein binding: cTnT coated, serial dilutions of bovine cardiac TnI, detected with mAb TnI-1; concentration of TnI required to reach 50% of maximum binding.
Experiment [3] has as its target bovine cardiac troponin T (bovine) (UniProt P13789).

In the case of “NH2-terminal truncated mouse cardiac troponin T (McTnT-ND72-291), reconstructed and expressed in E. coli (from UniProt P50752)”, the concentration giving a half-maximal response (EC50) (usually the concentration at which the effect is half-maximal) in experiment [1] came out at 0.00973 µM; in experiment [2], 0.00873 µM.
As to “intact mouse cardiac troponin T (TnT4), expressed in E. coli (from UniProt P50752)”, the EC50 in experiment [1] turned out to be 0.0135 µM; in experiment [2] it was 0.0153 µM.
Take µ-calpain (Calbiochem) (enzyme): the relative amounts of intact and NH2-terminal truncated cTnT, densitometry of mAb CT3 Western blots of µ-calpain treated bovine cardiac myofibrils (% intact cTnT) in experiment [3] is 1.5.
